This is an account of results in PMC12391449, “Hepatitis C virus NS3 helicase contributes to (−) strand RNA synthesis”.

This data set concerns the target NS3h wt (NS3 helicase domain) (Hepatitis C virus JFH1 (genotype 2a), UniProt Q99IB8 1218-1662). Description: fluorescence polarization; probe; Kd of 5 nM only assumed for fit; FP competition: 15 nM NS3h, 15 nM Cy5-dT15, 25 mM MOPS pH 7.5, 1.25 mM MgCl2, 0.0025 mg/ml BSA, 0.005% Tween20, 0.025 mM DTT, 0-2000 nM competitor, 20 min, 23 C. The conditions noted are these: protein: recombinant; tags: C-terminal His tag; label: 5' Cy5. A general note: Polarisation of emitted light reports the rotation of a fluorescent probe.

Chain of NS3h wt (NS3 helicase domain) (Q99IB8 1218-1662): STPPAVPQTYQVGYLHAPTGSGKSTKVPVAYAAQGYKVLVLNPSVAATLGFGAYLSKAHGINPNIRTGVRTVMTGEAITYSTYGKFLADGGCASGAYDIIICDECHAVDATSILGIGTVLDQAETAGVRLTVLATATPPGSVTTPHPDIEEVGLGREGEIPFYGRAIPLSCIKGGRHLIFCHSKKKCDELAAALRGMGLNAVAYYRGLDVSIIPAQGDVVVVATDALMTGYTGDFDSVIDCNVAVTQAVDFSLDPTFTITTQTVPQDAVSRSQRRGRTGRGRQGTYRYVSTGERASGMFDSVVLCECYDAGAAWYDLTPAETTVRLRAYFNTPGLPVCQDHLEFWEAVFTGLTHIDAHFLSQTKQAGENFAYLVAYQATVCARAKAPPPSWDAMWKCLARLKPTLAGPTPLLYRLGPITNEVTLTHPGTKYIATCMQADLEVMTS

For the molecule TTTTTTTTTTTTTTT (ssDNA) [Cy5-dT15], the binding result was “binds”.
